Where two headings read alike, the source gives them in different places. Each block holds one binder with its values, some of them ahead of it.
Columns and labels:
[1] = molecular target: T1, mouse CCK-B receptor peptide (custom 15-amino-acid extracellular mouse sequence) (Mus musculus, UniProt P56481)
T1 chain: CETPRIRGTGTRELE

[2] = molecular target: T1, mouse CCK-B receptor peptide (custom …); assay: not stated
[3] = molecular target: T2, mouse CCK-B receptor peptide (custom 15-amino-acid extracellular mouse sequence) (mouse); assay: BLI
T2 chain: CETPRIRGTGTRELE

[4] = molecular target: T1, mouse CCK-B receptor peptide (custom …); assay: BLI; Octet RED384 instrument; scFv77-2 and mouse CCK-B peptide; conditions: both partners purified
[5] = molecular target: T1, mouse CCK-B receptor peptide (custom …); assay: ELISA; indirect ELISA of the scFvs on CCK-B receptor peptide, concentration-dependent; apparent affinity; methods in the supplementary section; conditions: both partners purified

B1: CCK-BR_scFv13-3 (antibody, V domains shown)
VH: EVQLQQSGAELVKPGASVKMSCKASGYTFTSYWMHWVKQRPGQGLEWIGYINPSTGYTEYNQKFKDKATLTADKSSSTAYMQLSSLTSEDSAVYYCAGDNYGYWYFDVWGAGTTVTVSS
VL: DIVMTQSPSSLSVSAGEKVTMSCKSSQSLLNSGNQKNYLAWYQQKPGQPPKLLIYGASTRESGVPDRFTGSGSGTDFTLTISSVQAEDLAVYYCQNDHSYPYTFGGGTKLEIK
binding result [1]: binds

B3: CCK-BR_scFv11-2 (antibody, V domains shown)
VH: QVQLKQSGAELVRPGSSVKISCKASGYAFTNYLIEWVKQRPGQGLEWIGQIYPGDGDTNYNGKFKGKATLTVDNSSSTAYMELRSLTSEDSAVYYCARAATWYYAMDYWGQGTSVTVSS
VL: QIVLTQSPAIMSASPGEKVTITCSASSSVSYMHWFQQKPGTSPKLWIYSTSNLASGVPARFSGSGSGTSYSLTISSMEAEDAASYFCHQWSSYPWTFGGGTKLEIK
binding result [1]: binds

B5: CCK-BR_scFv93-1 (antibody, V domains shown)
VH: QVQLKESGPGLVAPSQSLSITCTVSGFSLTSYGVHWVRQPPGKGLEWLGVIWAGGSTNYNSALMSRLSISKDNSKSQVFLKMNSLQTDDTAMYYCARGLRGAMDYWGQGTSVTVSS
VL: DIVMTQSPSSLSVSAGEKVTMSCKSSQSLLASGNQNNYLAWHQQKPGRSPKMLIIWASTRESGVPDRFTGSGSGTDFTLTISSVQAEDVAVYYCQNDHSYPFTFGSGTKLEIK
binding result [1]: binds

Next, values leading:

Kd [2]: 195 nM
koff [3]: 0.000381 s⁻¹
Kd [4]: 17.9 nM
B2: CCK-B scFv77-2 antibody (scFv, V domains shown)
VH: EVQLQQSGAELVRSGASVKLSCTASGFNIKDYYIHWVKQRPEQGLEWIGWIDPENGDTEYAPKFQGKATMTADTSSNTAYLQLSSLTSEDTAVYYCNAGGRFAYWGQGTLVTVSA
VL: B1 VL
notes: VH of scFv77-2; 20-amino-acid flexible linker, printed as the formula [(G4S)4] and written out from it; VL of scFv77-2; Selected by ribosome display from a library of immunised mice; Apparent mass 26 kDa on the gel; The His-tag is named only for the Western blots of tissue after injection; Construct and methods are in the supplementary section; also called CCK-BR scFv 77-2; CCKBR scFv 77-2; …

binding result [1]: binds
B4: CCK-BR_scFv8-3 (antibody, V domains shown)
VH: QVQLKESGAELAKPGASVKMSCKASGYTFTSYWMHWVKQRPGQGLEWIGYINPSTGYTEYNQKFKDKATLTADKSSSTAYMQLSSLTSEDSAVYYCARDYGSSFDYWGQGTTLTVSS
VL: DVVMTQTPLTLSVTIGQPASISCKSSQSLLDSGNQKNYLAWYQQKPGQPPKLLIYGASTRESGVPDRFTGSGSGTDFTLTISSVQAEDLAVYYCQNDHSYPYTFGGGTKLEIK

binding result [5]: binds
B6: CCK-B scFv134-1 antibody (scFv, V domains shown)
VH: EVQLQQSGAELVKPGASVKMSCKASGYTFTDYWMHWVKQRPGQGLEWIGAIDTSDSYTSYNQKFKGKATLTVDKSSSTAYIQLSSLTSEDSAVYYCARSEGYLPFDYWGQGTTLTVSS
VL: DVVMTQTPLSLPVSFGDQVSISCRSSQSLANSYGNTYLSWYLHKPGQSPQLLIYGISNRFSGVPDRFSGSGSGTDFTLKISTIKPEDLGMYYCLQGTHQPRTFGGGTKLEIK
notes: VH of scFv134-1; 20-amino-acid flexible linker, printed as the formula [(G4S)4] and written out from it; VL of scFv134-1; One of the panel of 7 anti-CCK-B receptor scFvs; Construct and methods are in the supplementary section; source: E. coli cytoplasm (pET32a expression vector), purified
